T1: human BCMA ECD protein (Abcam ab50089) (human, UniProt Q02223 1-54)
T1 chain: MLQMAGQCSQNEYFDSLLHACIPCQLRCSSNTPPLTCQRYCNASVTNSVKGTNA


Assays:
[1] = target: BCMA protein of Cynomolgus macaque (Cynomolgus macaque, UniProt A0A2K5UD97 1-53); assay: Octet off-rate
[2] = target: T1, human BCMA ECD protein (Abcam ab50089); assay: Octet off-rate

BCMA protein of Cynomolgus macaque, sequence (A0A2K5UD97 entry or part of it): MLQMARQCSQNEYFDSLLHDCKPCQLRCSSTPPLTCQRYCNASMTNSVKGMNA

Row | koff [1] | koff [2] | Binder
1 | 0.000322 s⁻¹ | < 1e-07 s⁻¹ | heavy chain-only anti-BCMA antibody (UniAb) with the heavy chain variable region of SEQ ID NO: 15 (antibody, V domains shown) VH: EVQLLESGGGLVQPGGSLRLSCAASGFTFSSYAMSWVRQAPGKGLEWVSSISGSGDYIYYADSVKGRFTISRDISKNTLYLQMNSLRAEDTAVYYCAKEGTGANSSLADYRGQGTLVTVSS
2 | 0.00189 s⁻¹ | < 1e-07 s⁻¹ | heavy chain-only anti-BCMA antibody (UniAb) with the heavy chain variable region of SEQ ID NO: 13 (antibody, V domains shown) VH: QVQLVESGGGLVQPGGSLRLSCAASGFTFSSHAMTWVRQAPGKGLEWVAAISGSGDFTHYADSVKGRFTISRDNSKNTVSLQMNNLRAEDTAVYYCAKDEDGGSLLGYRGQGTLVTVSS
3 | 0.000941 s⁻¹ | < 1e-07 s⁻¹ | heavy chain-only anti-BCMA antibody (UniAb) with the heavy chain variable region of SEQ ID NO: 12 (antibody, V domains shown) VH: QVQLVESGGGLVQPGGSLRLSCAASGFTFTNHAMSWVRQAPGKGLELVSSISGNGRTTYYADSVKGRFTISRDISKNTLDLQMNSLRAEDTAVYYCAKDGGETLVDSRGQGTLVTVSS
